Source: patent publication US20180186880A1

Molecular target: B7-H3 ECD (extracellular domain of B7-H3) (UniProt Q5ZPR3)
Test: adsorption ELISA on B7-H3 ECD, serial dilutions of purified mAb, estimate of binding affinity

B1: TRL4542 (antibody, V domains shown)
VH: QVQLVESGGDLVQPGESLRLSCAASGFIFSDAWMVWVRQAPGKGLEWVGRIKTNGDGGTTDLTEPVKGRFTISRDDSKNMVYLQMNNLRTEDTAIYYCTTAPGFWGQGTLVTVSS
VL: DIEMTQSPDSLAVSLGERATINCKSSHNLLYKSNNKNYLAWSQQKPGQPPRLLIYWASTRDSGVPDRFSGSGSGTDFTLTISSLQAEDVAVYYCHQYYGTKWTFGQGTRVEIKR
In the case of B1, the Affinity is reported as 5 nM.
